Data published in patent US20140213531A1 (POLYPHOR, published 2014).
Each block holds one binder with its values, some of them ahead of it.

Key:
Experiment in all cases: enzyme inhibition, pNA substrate
[1] = target: T1, Trypsin, Iodination grade, from human pancreas (human, UniProt P07477 24-247)
T1 construct: purified natural enzyme, bought

[2] = target: T2, Coagulation Factor Xa, from uman plasma (human, UniProt P00742 41-179; P00742 235-488, limits assumed)
T2 construct: purified natural enzyme, bought; also called FXa

Chymase, from human skin = target: T3, Chymase, from human skin (human, UniProt P23946 22-247)
T3 construct: purified natural enzyme, bought
T3 sequence (looked up): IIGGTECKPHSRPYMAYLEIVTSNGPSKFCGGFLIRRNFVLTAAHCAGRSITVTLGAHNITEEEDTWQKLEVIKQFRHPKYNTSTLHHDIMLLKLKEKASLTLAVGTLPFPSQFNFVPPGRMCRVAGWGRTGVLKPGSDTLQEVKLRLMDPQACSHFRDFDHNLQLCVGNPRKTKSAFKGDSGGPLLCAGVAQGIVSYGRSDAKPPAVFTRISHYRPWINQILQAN

[3] = target: Thrombin, from Human Plasma, high activity (human, UniProt P00734 328-622)
[4] = target: T4, Tryptase, from human lung (human, UniProt Q15661 31-275, limits assumed)
T4 construct: purified natural enzyme, bought

[5] = target: T5, Urokinase from human urine (human, UniProt P00749 21-431, limits assumed)
T5 construct: purified natural enzyme, bought

[6] = target: T6, Chymotrypsin, from human pancreas (human, UniProt P17538 19-263)
T6 construct: purified natural enzyme, bought
T6 sequence (P17538 19-263): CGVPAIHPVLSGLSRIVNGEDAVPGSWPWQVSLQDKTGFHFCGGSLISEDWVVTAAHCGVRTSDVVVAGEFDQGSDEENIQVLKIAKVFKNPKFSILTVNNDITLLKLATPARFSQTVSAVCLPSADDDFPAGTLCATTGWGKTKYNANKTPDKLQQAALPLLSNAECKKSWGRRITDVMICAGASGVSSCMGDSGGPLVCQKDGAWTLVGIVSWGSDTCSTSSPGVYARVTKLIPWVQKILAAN

T2 sequence (P00742 41-179 limits assumed, chain 1 of 2): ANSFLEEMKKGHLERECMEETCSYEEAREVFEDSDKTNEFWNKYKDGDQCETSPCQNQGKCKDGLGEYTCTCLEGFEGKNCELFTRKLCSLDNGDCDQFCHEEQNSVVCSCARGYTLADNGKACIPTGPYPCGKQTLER
T2 sequence (P00742 235-488 limits assumed, chain 2 of 2): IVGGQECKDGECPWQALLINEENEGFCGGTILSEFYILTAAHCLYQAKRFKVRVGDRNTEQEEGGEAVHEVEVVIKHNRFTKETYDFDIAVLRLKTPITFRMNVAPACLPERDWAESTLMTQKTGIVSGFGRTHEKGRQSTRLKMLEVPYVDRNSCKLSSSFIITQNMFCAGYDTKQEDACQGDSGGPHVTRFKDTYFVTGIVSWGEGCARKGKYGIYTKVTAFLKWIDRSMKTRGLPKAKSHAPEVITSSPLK
T4 sequence (Q15661 31-275 limits assumed): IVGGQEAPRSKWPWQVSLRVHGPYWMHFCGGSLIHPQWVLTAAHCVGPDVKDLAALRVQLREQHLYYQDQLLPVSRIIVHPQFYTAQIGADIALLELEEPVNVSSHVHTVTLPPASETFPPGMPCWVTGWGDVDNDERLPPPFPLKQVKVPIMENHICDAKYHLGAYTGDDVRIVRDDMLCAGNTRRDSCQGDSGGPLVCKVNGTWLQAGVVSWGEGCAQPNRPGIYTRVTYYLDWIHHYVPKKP

% inhibition at 100 µM [1]: 30.5%
% inhibition at 100 µM [2]: 0%
% inhibition at 100 µM (Chymase, from human skin): 0%
% inhibition at 100 µM [3]: 0%
% inhibition at 100 µM [4]: 0%
% inhibition at 100 µM [5]: 17.4%
B1: Example 99 (peptide)
peptide: XCTASIPPQCY
HELM: PEPTIDE1{[CCCCCC[C@H](N[*:1])C(=O)[*:2]].C.T.A.S.I.P.P.Q.C.Y.[dP].P}$PEPTIDE1,PEPTIDE1,2:R3-10:R3|PEPTIDE1,PEPTIDE1,1:R1-13:R2$$$V2.0
SMILES: CCCCCC[C@@H]1NC(=O)[C@@H]2CCCN2C(=O)[C@H]2CCCN2C(=O)[C@H](Cc2ccc(O)cc2)NC(=O)[C@@H]2CSSC[C@H](NC1=O)C(=O)N[C@@H]([C@@H](C)O)C(=O)N[C@@H](C)C(=O)N[C@@H](CO)C(=O)N[C@@H]([C@@H](C)CC)C(=O)N1CCC[C@H]1C(=O)N1CCC[C@H]1C(=O)N[C@@H](CCC(N)=O)C(=O)N2
notes: also called Ex. 99

% inhibition at 100 µM (Chymase, from human skin): 0%
% inhibition at 100 µM [3]: 11%
% inhibition at 100 µM [6]: 87%
% inhibition at 100 µM [4]: 22%
% inhibition at 100 µM [5]: 0%
B2: Example 146 (peptide)
peptide: XCTASIPPQCF
HELM: PEPTIDE1{[O=C([C@H](CCc1ccccc1)N[*:1])[*:2]].C.T.A.S.I.P.P.Q.C.F.[dP].P}$PEPTIDE1,PEPTIDE1,2:R3-10:R3|PEPTIDE1,PEPTIDE1,1:R1-13:R2$$$V2.0
SMILES: CC[C@H](C)[C@@H]1NC(=O)[C@H](CO)NC(=O)[C@H](C)NC(=O)[C@H]([C@@H](C)O)NC(=O)[C@@H]2CSSC[C@H](NC(=O)[C@H](CCC(N)=O)NC(=O)[C@@H]3CCCN3C(=O)[C@@H]3CCCN3C1=O)C(=O)N[C@@H](Cc1ccccc1)C(=O)N1CCC[C@@H]1C(=O)N1CCC[C@H]1C(=O)N[C@@H](CCc1ccccc1)C(=O)N2

% inhibition at 100 µM [1]: 0%
% inhibition at 100 µM [2]: 0%
% inhibition at 100 µM (Chymase, from human skin): 0%
% inhibition at 100 µM [4]: 0%
% inhibition at 100 µM [5]: 0%
B3: Example 98 (peptide)
peptide: XCTASIPPQCX
HELM: PEPTIDE1{[Nle].C.T.A.S.I.P.P.Q.C.[Phg].[dP].P}$PEPTIDE1,PEPTIDE1,2:R3-10:R3|PEPTIDE1,PEPTIDE1,1:R1-13:R2$$$V2.0
SMILES: CCCC[C@@H]1NC(=O)[C@@H]2CCCN2C(=O)[C@H]2CCCN2C(=O)[C@H](c2ccccc2)NC(=O)[C@@H]2CSSC[C@H](NC1=O)C(=O)N[C@@H]([C@@H](C)O)C(=O)N[C@@H](C)C(=O)N[C@@H](CO)C(=O)N[C@@H]([C@@H](C)CC)C(=O)N1CCC[C@H]1C(=O)N1CCC[C@H]1C(=O)N[C@@H](CCC(N)=O)C(=O)N2
notes: also called Ex. 98

% inhibition at 100 µM [1]: 19%
% inhibition at 100 µM [2]: 19.6%
% inhibition at 100 µM [3]: 0%
% inhibition at 100 µM [5]: 11.1%
B4: Example 122 (peptide)
peptide: XCTASIPPQCY
HELM: PEPTIDE1{[Nle].C.T.A.S.I.P.P.Q.C.Y.[dP].F}$PEPTIDE1,PEPTIDE1,2:R3-10:R3|PEPTIDE1,PEPTIDE1,1:R1-13:R2$$$V2.0
SMILES: CCCC[C@@H]1NC(=O)[C@H](Cc2ccccc2)NC(=O)[C@H]2CCCN2C(=O)[C@H](Cc2ccc(O)cc2)NC(=O)[C@@H]2CSSC[C@H](NC1=O)C(=O)N[C@@H]([C@@H](C)O)C(=O)N[C@@H](C)C(=O)N[C@@H](CO)C(=O)N[C@@H]([C@@H](C)CC)C(=O)N1CCC[C@H]1C(=O)N1CCC[C@H]1C(=O)N[C@@H](CCC(N)=O)C(=O)N2
